Assay results published in patent publication US20250188133A1, “CHIMERIC BACTERIOCINS AND METHOD FOR THE CONTROL OF PSEUDOMONAS” (priority 2022, published 2025).

Key:
Assay type in all cases: cell-based
P. aeruginosa 13-18499 = test: agar disc-diffusion assay; settings: strain 13-18499; 0.3, 3 and 30 μg of protein spotted on discs on CAA agar lawn, overnight
Experimental: (§1) Overnight P. aeruginosa cultures grown in CAA medium were equalized till OD595=1.0 in CAA and diluted 100×. Sterile cotton swab was briefly submerged in diluted microbial suspension, removing the excess of liquid by pressing it against the container wall. The swab was used for evenly streaking bacteria on plates containing growth medium with CAA solid agar (1.5%). 6 mm diameter sterile Whatman discs were placed on soft-agar and 0.3-30 μg of chimeric pyocins were spotted to paper disks. The plates were incubated overnight at 37° C. and bacteriocin inhibition zones were observed.
(§2) Next, all 25 P. aeruginosa strains were subjected to agar disc-diffusion assay by spotting different amounts of purified pyocin S5 (0.3 μg, 3 μg and 30 μg) on bacteria lawns. Six P. aeruginosa strains were resistant to pyocin S5. Four of these six strains were pyocin S5 and immunity protein-encoding strains—PA14, PAO1, […] and NCTC 13921. Two cystic fibrosis isolates, 12-35708 and 12-29165 were also completely resistant to pyocin S5, despite the absence of S5, or S5 immunity protein coding genes. […] Turbid inhibition zones were detected when 3 μg and 30 μg of S5 were spotted on the lawn of these strains (Table 1, FIG. 3).

P. aeruginosa A19 = test: agar disc-diffusion assay; settings: strain A19; 0.3, 3 and 30 μg of protein spotted on discs on CAA agar lawn, overnight
Experimental: as §1, §2

P. aeruginosa ATCC 29260 = test: agar disc-diffusion assay; settings: strain ATCC 29260; 0.3, 3 and 30 μg of protein spotted on discs on CAA agar lawn, overnight
Experimental: as §1, §2

P. aeruginosa BI80 = test: agar disc-diffusion assay; settings: strain BI80; 0.3, 3 and 30 μg of protein spotted on discs on CAA agar lawn, overnight
Experimental: as §1, §2

P. aeruginosa BL77 = test: agar disc-diffusion assay; settings: strain BL77; 0.3, 3 and 30 μg of protein spotted on discs on CAA agar lawn, overnight
Experimental: as §1, §2

[1] = tested on: P. aeruginosa Boston 41501 (ATCC 27853); test: agar disc-diffusion assay; settings: strain Boston; 0.3, 3 and 30 μg of protein spotted on discs on CAA agar lawn, overnight
Experimental: as §1, §2

P. aeruginosa Bu002 = test: agar disc-diffusion assay; settings: strain Bu002; 0.3, 3 and 30 μg of protein spotted on discs on CAA agar lawn, overnight
Experimental: as §1, §2

P. aeruginosa HP1 = test: agar disc-diffusion assay; settings: strain HP1; 0.3, 3 and 30 μg of protein spotted on discs on CAA agar lawn, overnight
Experimental: as §1, §2

P. aeruginosa HP40 = test: agar disc-diffusion assay; settings: strain HP40; 0.3, 3 and 30 μg of protein spotted on discs on CAA agar lawn, overnight
Experimental: as §1, §2

P. aeruginosa HP41 = test: agar disc-diffusion assay; settings: strain HP41; 0.3, 3 and 30 μg of protein spotted on discs on CAA agar lawn, overnight
Experimental: as §1, §2

P. aeruginosa HP52 = test: agar disc-diffusion assay; settings: strain HP52; 0.3, 3 and 30 μg of protein spotted on discs on CAA agar lawn, overnight
Experimental: as §1, §2

P. aeruginosa HP6 = test: agar disc-diffusion assay; settings: strain HP6; 0.3, 3 and 30 μg of protein spotted on discs on CAA agar lawn, overnight
Experimental: as §1, §2

P. aeruginosa HP7 = test: agar disc-diffusion assay; settings: strain HP7; 0.3, 3 and 30 μg of protein spotted on discs on CAA agar lawn, overnight
Experimental: as §1, §2

P. aeruginosa NCTC 13921 = test: agar disc-diffusion assay; settings: strain NCTC 13921; 0.3, 3 and 30 μg of protein spotted on discs on CAA agar lawn, overnight
Experimental: as §1, §2

P. aeruginosa PAO1 = test: agar disc-diffusion assay; settings: strain PAO1; 0.3, 3 and 30 μg of protein spotted on discs on CAA agar lawn, overnight
Experimental: as §1, §2

P. aeruginosa Pr335 = test: agar disc-diffusion assay; settings: strain Pr335; 0.3, 3 and 30 μg of protein spotted on discs on CAA agar lawn, overnight
Experimental: as §1, §2

P. aeruginosa UR78 = test: agar disc-diffusion assay; settings: strain UR78; 0.3, 3 and 30 μg of protein spotted on discs on CAA agar lawn, overnight
Experimental: as §1, §2

P. aeruginosa strains = test: agar disc-diffusion assay, panel of 25 strains; settings: panel of 25 P. aeruginosa strains, in words
Experimental: as §1, §2

Molecule | Activity in agar disc-diffusion assay (P. aeruginosa 13-18499) | Activity in agar disc-diffusion assay (P. aeruginosa A19) | Activity in agar disc-diffusion assay (P. aeruginosa ATCC 29260) | Activity in agar disc-diffusion assay (P. aeruginosa BI80) | Activity in agar disc-diffusion assay (P. aeruginosa BL77) | Activity in agar disc-diffusion assay [1] | Activity in agar disc-diffusion assay (P. aeruginosa Bu002) | Activity in agar disc-diffusion assay (P. aeruginosa HP1) | Activity in agar disc-diffusion assay (P. aeruginosa HP40) | Activity in agar disc-diffusion assay (P. aeruginosa HP41) | Activity in agar disc-diffusion assay (P. aeruginosa HP52) | Activity in agar disc-diffusion assay (P. aeruginosa HP6) | Activity in agar disc-diffusion assay (P. aeruginosa HP7) | Activity in agar disc-diffusion assay (P. aeruginosa NCTC 13921) | Activity in agar disc-diffusion assay (P. aeruginosa PAO1) | Activity in agar disc-diffusion assay (P. aeruginosa Pr335) | Activity in agar disc-diffusion assay (P. aeruginosa UR78) | activity spectrum / profile in agar disc diffusion assay (P. aeruginosa strains)
S5-Pflu618: chimeric bacteriocin SEQ ID NO: 21: pyocin S5 first segment fused to P. fluorescens Pflu618 killing domain (protein, S5-Pflu618) MSNDNEVPGSMVIVAQGPDDQYAYEVPPIDSAAVAGNMFGDLIQREIYLQKNIYYPVRSIFEQGTKEKKEINKKVSDQVDGLLKQITQGKREATRQERVDVMSAVLHKMESDLEGYKKTFTKGPFIDYEKQSSLSIYEAWVKIWEKNSWEERKKYPFQQLVRDELERAVAYYKQDSLSEAVKVLRQELNKQKALKEKEDLSQLERDYRTRKANLEMKVQSELDQAGSALPPLVSPTPEQWLERATRLVTQAIADKKQLQTTNNTLIKNSPTPLEKQKAIYNGELLVDEIASLQARLVKLNAETTRRRTEAEAEAKRIDDYKRAVAFVADANKYILEKYGANLHQVVMDLQKDISGKKIRSYAEAMQTFEAVRTNPNARLSPQDTRAVVDALNALDKATYMDSVNKLAKGFGVTGKIVQAHSVIEKTVIGFRDGNWKPLILELESIALGAGAGAAVATLLAVFSPGFAASAIGIVAVGVAIATIASLLNADNVEKINVFISDHLETALKEQR | * (activity detected only with 30 μg of protein) | *** (activity detected with 0.3 μg of protein) | * (activity detected only with 30 μg of protein) | * (activity detected only with 30 μg of protein) | * (activity detected only with 30 μg of protein) | ** (activity detected with 3 μg of protein) | ** (activity detected with 3 μg of protein) | ** (activity detected with 3 μg of protein) | ** (activity detected with 3 μg of protein) | ** (activity detected with 3 μg of protein) | * (activity detected only with 30 μg of protein) | * (activity detected only with 30 μg of protein) | ** (activity detected with 3 μg of protein) | * (activity detected only with 30 μg of protein) | ** (activity detected with 3 μg of protein) | ** (activity detected with 3 μg of protein) | * (activity detected only with 30 μg of protein) | weaker and less broad activity in comparison to pyocin S5
S5-Pflu794: chimeric bacteriocin SEQ ID NO: 17: pyocin S5 first segment fused to P. fluorescens Pflu794 killing domain (protein, S5-Pflu794) MSNDNEVPGSMVIVAQGPDDQYAYEVPPIDSAAVAGNMFGDLIQREIYLQKNIYYPVRSIFEQGTKEKKEINKKVSDQVDGLLKQITQGKREATRQERVDVMSAVLHKMESDLEGYKKTFTKGPFIDYEKQSSLSIYEAWVKIWEKNSWEERKKYPFQQLVRDELERAVAYYKQDSLSEAVKVLRQELNKQKALKEKEDLSQLERDYRTRKANLEMKVQSELDQAGSALPPLVSPTPEQWLERATRLVTQAIADKKQLQTTNNTLIKNSPTPLEKQKAIYNGELLVDEIASLQARLVKLNAETTRRRTEKASDQANNVDIEEAILFTTTFYENLTEKYGEKVSAVAKELAESAKGKTMRSSKEALQTFEKYKDTYNGRFRSRDRREVDRALKSLDKELLSKNLAKFSKAFGSVSKIGDLTEVFIELENSIRTGDWKPLLLTLEGIGLGMAGTYLVAAVFGISATTPLGIVVFAVLMAATSAYIDDDLVKKVNKDLFGF | – | *** (activity detected with 0.3 μg of protein) | – | – | – | * (activity detected only with 30 μg of protein) | – | – | * (activity detected only with 30 μg of protein) | – | – | * (activity detected only with 30 μg of protein) | – | * (activity detected only with 30 μg of protein) | – | ** (activity detected with 3 μg of protein) | – | only week activity on 6 tested strains
